Experimental data taken from publication PMC8313009.

Key:
Complement C3b (human) [1] = target: Complement C3b (human) (UniProt P01024); experiment: ELISA; competition; heparin-binding plates coated with 25 ug/ml human C3b alone; FH fixed at 16 nM with rFHR-5 at 7-221 nM (dimer), 2 h room temperature, 5% BSA, 100 mM NaCl, 50 mM NaOAc, pH 7.3; bound FH detected with monoclonal anti-FH; FH binding without rFHR-5 = 100%
Complement C3b (human) [2] = target: Complement C3b (human) (UniProt P01024); experiment: ELISA; competition; heparin-binding plates coated with 25 ug/ml human C3b together with 40 ug/ml kidney heparan sulfate; FH fixed at 16 nM with rFHR-5 at 7-221 nM (dimer), 2 h room temperature, 5% BSA, 100 mM NaCl, 50 mM NaOAc, pH 7.3; bound FH detected with monoclonal anti-FH; FH binding without rFHR-5 = 100%

B1: Recombinant complement factor H-related protein 5 (natural protein)
chain: EGTLCDFPKIHHGFLYDEEDYNPFSQVPTGEVFYYSCEYNFVSPSKSFWTRITCTEEGWSPTPKCLRMCSFPFVKNGHSESSGLIHLEGDTVQIICNTGYSLQNNEKNISCVERGWSTPPICSFTKGECHVPILEANVDAQPKKESYKVGDVLKFSCRKNLIRVGSDSVQCYQFGWSPNFPTCKGQVRSCGPPPQLSNGEVKEIRKEEYGHNEVVEYDCNPNFIINGPKKIQCVDGEWTTLPTCVEQVKTCGYIPELEYGYVQPSVPPYQHGVSVEVNCRNEYAMIGNNMITCINGIWTELPMCVATHQLKRCKIAGVNIKTLLKLSGKEFNHNSRIRYRCSDIFRYRHSVCINGKWNPEVDCTEKREQFCPPPPQIPNAQNMTTTVNYQDGEKVAVLCKENYLLPEAKEIVCKDGRWQSLPRCVESTAYCGPPPSINNGDTTSFPLSVYPPGSTVTYRCQSFYKLQGSVTVTCRNKQWSEPPRCLDPCVVSEENMNKNNIQLKWRNDGKLYAKTGDAVEFQCKFPHKAMISSPPFRAICQEGKFEYPICE
Complement C3b (human) [1]
  percent of FH binding to surface C3b left at a 1:1 molar ratio of rFHR-5 and FH: 80%
Complement C3b (human) [2]
  percent of FH binding to surface C3b with kidney HS left at a 1:1 molar ratio of rFHR-5 and FH: 50%
